This data set can be described thus: 14C assay: 14CO2 capture from [14C]-carboxyl-labeled dicamba with IPTG-induced recombinant E. coli cells. Conditions: for Dicamba Decarboxylase Activity: IPTG-induced recombinant E. coli cells, 14CO2 from [14C]-carboxyl-labeled dicamba; for Enzymatic Detection level: dicamba decarboxylation activity.

B1: 60 (protein, listed as Catenulispora acidiphila)
chain: MARGFVRTAVVPGFWDAGWRGAGQPGGMRVDVHAHLFPAAYLDLLDDFRQDGGVGTREVRALGGGDGERELRLRLAAMDAVGVDVQLLSTCPQGPYTGDPTAAVEAARCANVALAQTVAQYPERLRALAALPLPHILASVDELNRAMEQDGMLGAAVGTSILGRPLSHPDFEPLFAALNRRKGVLFVHPIGESAGSPLMQASKLDRVIGYAAEVSTAILQLFQAGLTVKYPDIRIIAPHMGGYLPFLIQRLDRHRDWYLPKDAPSAGQLMRGIAYDTANPLPAALRLTAEVVGPERLLLGTDYPFEQGPSLRDHIEYILAAGLPEAQAKMIVDVNAADFLDMRSGAEQPPV
On to B1, for which the “Dicamba Decarboxylase Activity” value was “No” and the “Enzymatic Detection level” value is listed as “No”.

B2: 40 (protein, listed as Rhodococcus jostii)
chain: MAQGKIALEEHFAIPETLNDSAGFVPGTYWDELQARLLDIQDVRLKLMDEHNIETMILSLNAPAVQAIPERERAIDIARRANDVLAEECAKRPDRFRGFAALPLQDPDAAAEELRRCVTELGFVGALVNGFSQSATVDGGSTPLYYDLPRYRPFWAEVERLDVPFYLHPRNPLNQDARIYEGHPWLLGPTWAFAQETAVHALRLMASGLFDEHPGLRIVLGHMGEGIPAMLWRIDHRNAWVDVPPAYPAKRRMVDYFTENFFVTTSGNFRTQTLIDLLLELGSERVMFSTDWPFENINHAAEWFDAASISEADRLKIGRTNAATLFKLDR
For B2, the “Dicamba Decarboxylase Activity” value was “Low” and the “Enzymatic Detection level” value is recorded as “Low”.

B3: 59 (protein)
chain: MAPSVIDAHAHFLPGSLVTALRSRSDAPDIRTDSNGGESFGIYRTRMPYGRTYDALDVRLARMDELGVDRQILSLPGLFGIDSRPVSQALPLVRAFNDGVADLVRKHPDRFSGIAALPLADLDAAQEEYRRARGDLGLSGLILPGDTFVSVAAAERVRPLFELAATIGGLIFVHPGPLPDETGSAVDAPAPHTDSVVHRRVTVDIQNRMTEVMVTLALTDFLAPYPSVPVQVANLGGSLPFVIERMDHVYALRNPEAPPPSLSLRSLYVDAASLGPRAIALAAEVYGADRVLFGSDYPIFDDGRCLDAVRQTRLSPDARALIAGGNAARMLTQT
modifications: alpha proteobacterium
Take B3: the “Dicamba Decarboxylase Activity” value is listed as “No” and the “Enzymatic Detection level” value is recorded as “No”.

B4: 42 (protein)
chain: MAQGKIALEEHFAIPDTLQDSAGFVPGDYWKELSARLLDIHEQRLMQMDAYGIEKMILSLNAPAVQAIPDKAKALEISRRANDFLAEQCARNPDRFLGFAALPLQDPDAATAELQRCVKTLGFVGALVNGFSQEGDGVTPLYYDLPQYRGFWAEVEKLAVPFYLHPRNPLPQDSRIYAGHPWLMGPTWAFAQETAVHALRLVGSGLFDDHPALRIILGHMGEGLPYMMWRIDNRNAWVKVAPNYPAKRRIADYFNENFYITTSGNFRTQSLVDAMLEIGADRILFSTDWPFENIDHASDWFDTATISEADRLKIGRTNAATLFNLES
modifications: Agrobacterium radiobacter
Turning to B4, the “Dicamba Decarboxylase Activity” value is “Low” and the “Enzymatic Detection level” value is recorded as “Low”.

B5: 39 (protein, listed as Agrobacterium fabrum)
chain: MAQGKVALEEHFAIPETLQDSAGFVPGDCWTELQHRLLDIQDTRLKLMDAHGIETMILSLNAPAVQAIPDKTKAIEIARRANDALAEECAKRPDRFLAFAALPLQDPDAATQELRRCVNDLGFVGALVNGFSQEGDGQTPLYYDLPQYRPFWGEVEKLDVPFYLHPRNPLPQDSRIYDGHPWLLGPTWAFAQETAVHALRLMASGLFDEHPRLDIILGHMGEGLPYMMWRIDHRNAWVKLPPRYPAKRRFVDYFNENFHITTSGNFRTQTLIDAILEIGADRILFSTDWPFENIDHASDWFHATSIAEADRVKIGRTNARRLFKLDGR
For the molecule B5, the “Dicamba Decarboxylase Activity” value is listed as “No” and the “Enzymatic Detection level” value is “No”.

B6: 45 (protein)
chain: MANDDLAEVIAAHPDRFAGFAALPMRDPQAAAVELQRAVGTHGFCGAMINGLIEGRFLDDPAFAPLLSTAADLGVPLYLHPSFPPPQVAEIYFGGLAPVLGDLLATAGWGWHAETALHVLRLVATGVFDRLPELWVIVGHMGEMIPFALARIDTVLSPVAQLRQPVAQYFQTNVWFTTSGYTTFPPLQCALSTVGIDRLIFSVDYPYTDNTSARALLDTAPISPVDREKLAHGTVEALLRV
modifications: Mycobacterium sp
As to B6, the “Dicamba Decarboxylase Activity” value is “No” and the “Enzymatic Detection level” value was “No”.

B7: 37 (protein, listed as Burkholderia gladioli)
chain: MATFSNVKKIALEEHFAIAETIEDSAGFVPPDDWVELRGRLLDIQERRLAEMDRAGIELMVLSLNAPAVQAIRDPRQAVELARRANDYLAEQVARRPDRFRAFAALPMQAPEQAIREAERCVRELGFVGALVNGFSEAEDGAELYYDLPRYRPFWAALEALEVPFYLHPRNPLAGRAPIYDGHSWLMGPTWAFGQETAVHALRLMGSGLFDAHPRLQIILGHMGEGLPYSMWRVDNRNAWVSAKPNYPAEKPIAEYFRNNFWLTTSGNFRTQTLIDAMLEIGSDRILFSADWPFENMDHAADWFDHASISENDRIKIGRGNAERLLKLGR
On to B7, for which the “Dicamba Decarboxylase Activity” value was “Low” and the “Enzymatic Detection level” value is “Low”.

B8: 3 (protein, listed as Lactobacillus plantarum)
chain: MAKLITVEEHFESAAVTAAMRQAVGNAVLPAVSPALRQYMRDNLPSPAIMQDTQHERLAFMAQYGIDMQVLSYGNSSPQNLSPEQAVPLSQLANDELAKAVVAHPDRYAGLAVLPVGDPQAAVAELNRAVTTLGLRGVLLKGNYQNKFFDEPFFLPIFEAAAALDVPVYFHPSFIPQAVTSHYFESNQWSDVVTGILSSAGYGWHMDVGIQVIRMIASGIFDKLPGLKLISGHWGELVPLFLERLDDELTTYTDLQYPFSTYYRHNVYVTPSGILSAPQLQFMLAEMGADHLMYSIDYPYKQPETSGSFLDIADLTDEQRAQIAFGTATTLFKL
On to B8, for which the “Dicamba Decarboxylase Activity” value is “Low” and the “Enzymatic Detection level” value is “Low”.

B9: 38 (protein, listed as Variovorax paradoxus)
chain: MAQGKIGLEEHFAIPQTLQDSAGFVPGVYWKELSSRLLDIHDGRLRQMDEHGMEMMILSLNAPAVQAVADPVKAYELAVRANDFLAEQVAKRPDRFQAFAALPMQDPEKATQELERCMSVLGFRGALVNGFSQVGTPDNVAYYDAPQYAPFWAAAERLDAPFYLHPRNPIASWAQIYEGHPWLLGPTWAFAQETAVHALRLMASGLFDRHPGLKIILGHLGEGLPYNMWRVDHRNAWVKAPKGYPAKRKLCEYFQENFYLTTSGNFRTQTLIDAMLEVGSDRILFSTDWPFENIDHASNWFNDTSISEADRKKIGRTNAMSLFKLA
On to B9, for which the “Dicamba Decarboxylase Activity” value is reported as “Low” and the “Enzymatic Detection level” value is on record as “Low”.

B10: 61 (protein, listed as Gordonia amarae)
chain: MATGAGSGVPSPADRVIVRSPGVIDVHAHAVLPMSLGCAGAAGPEIGYREDGSPFFRVGEYVLNGVRYEGSAFMDPEVRVAAMDAAGIGLQMISPNPITYFTRLDARSATDYARAHNDAIAEAAGRHPGRLVGAAQLPMQDVPAAIAELERSVRELGLVAAYIDTDIGDRTLDAPELDDFYSAAVELDVPVFIHPSPVGQEGPPDDTRLRRFDLDLLLGFSYDETLAVAALVFGGVLERHPALDVCLSHGGGTLAFVAGRFARAVAKPRAWVPEFLVENGIESYLRRLWLDTHVHSAGSLRLLIDTVGTDRLVFGTNFAGWDADGATEVDALGDLRETTTANAAHLLRLGRA
With B10, the “Dicamba Decarboxylase Activity” value is listed as “No” and the “Enzymatic Detection level” value is given as “No”.

Source of the values: patent publication US20140289906A1, “Compositions Having Dicamba Decarboxylase Activity and Methods of Use” (priority 2013, published 2014).
